Measurements published in patent publication US20190144558A1.

Biological target: purified human CD117 ectodomain (R&D Systems #332-SR) (human) (UniProt P10721)
Test: BLI (Octet Red96), IgG on anti-human Fc sensors, human CD117 ectodomain at 33.3 and 11 nM, 1:1 fit

- Kd: 24.9 nM
- koff: 0.00533 s⁻¹
- kon: 214000 M⁻¹ s⁻¹
B1: Antibody 61 (antibody, human IgG1, kappa, V domains shown)
VH: EVQLLESGGGLVQPGGSLRLSCAASGFTFSSYVMIWVRQAPGKGLEWVSSISGDSVTTYYADSVKGRFTISRDNSKNTLYLQMNSLRAEDTAVYYCAKGPPTYHTNYYYMDVWGKGTTVTVSS
VL: DIQMTQSPSSVSASVGDRVTITCRASQGISSWLAWYQQKPGKAPKLLIYAASSLQSGVPSRFSGSGSGTDFTLTISSLQPEDFATYYCQQTNSFPYTFGGGTKVEIKR
